Assay results taken from doi:10.1101/2023.06.06.543969 (bioRxiv, 2023).

Molecular target: biotinylated SARS-CoV-2 fusion peptide (Severe acute respiratory syndrome …, biotin on the N-terminus)
Experiment: BLI
Details: both partners purified

B1: COV44–62 Fab VH R50W (Fab, V domains shown)
VH: QMQLMQSGAEVKKPGASVTVSCKASGDTFSDYRIHWVRQAPGQGLEWMGWMNPKSGDTNFAQKFQGRVTMTRDMSINTAYMTLSGLTFDDTALYYCASLLIVGGFDPLDDFEVWGQGTMVTISS
VL: QSALTQPPSASGSPGQSVTISCSGTSSDVGGYNFVSWYQHHPGKAPKILIYEVTKRPSGVPDRFSGSKSGNTASLTVSGLQAEDEADYYCSSYGGTNNLLFGGGTKLTVL
binding result: no binding (tested: 300 nM)
